Here are results for 3 molecules from paper PMC4605657, “Interaction between TATA-Binding Protein (TBP) and Multiprotein Bridging Factor-1 (MBF1) from the Filamentous Insect Pathogenic Fungus Beauveria bassiana”.

For the data set, the target named is BbMBF1 (multiprotein bridging factor 1) (Beauveria bassiana, UniProt J4WFU2 1-153). Briefly: EMSA; Binding buffer (4 ul in 20 ul reaction): 60 mM KCl, 20 mM Tris pH 7.9, 5 mM MgCl2, 10 mM DTT, 0.2 mg/ml BSA, 10% glycerol; 30 min at 37 C; 6% non-denaturing PAGE. The settings on record: protein: recombinant; tags: 6xHis (C-terminal; pET28a, thrombin site); blunt.

B1: TATAP (dsDNA)
DNA 1: GGAGCGGCATATGTCAAGTATAAAGAGCGGAATGTTTTTC
DNA 2: GAAAAACATTCCGCTCTTTATACTTGACATATGCCGCTCC
With B1, the binding result is given as “no binding”.

B2: TATAC (dsDNA)
DNA 1: CAGTAAAAGCTTGGTAGTATTTATATCTTCTCTCTTTCAC
DNA 2: GTGAAAGAGAGAAGATATAAATACTACCAAGCTTTTACTG
As to B2, the binding result was “no binding”.

B3: TATA0 (dsDNA)
DNA 1: CAGTAAAAGCTTGGTAGTATTTCTTCTCTCTTTCAC
DNA 2: GTGAAAGAGAGAAGAAATACTACCAAGCTTTTACTG
On to B3, for which the binding result is “no binding”.
